From US20150252117A1 (Genentech, published 2015)
Each block holds one binder with its values, some of them ahead of it.

Columns and labels:
Murine Jag1-DSL-EGF1-4 [1] = molecular target: T1, Murine Jag1-DSL-EGF1-4 (mouse, UniProt Q9QXX0 34-377); assay: ELISA (screening, FIG. 8)
T1 construct: also called murine Jagged1; mouse Jagged1

Human Jag1-DSL-EGF1-4 [2] = molecular target: T2, Human Jag1-DSL-EGF1-4 (human, UniProt P78504 34-377); assay: SPR (BIAcore-3000), IgG captured, Jag DSL-EGF1-4 as analyte, 25 C
T2 construct: Secreted protein from BEVS cells; also called human Jagged1; hJag1; not shown: TEV protease cleavage site and 6-His tag at the C-terminus

Murine Jag2-DSL-EGF1-4 [3] = molecular target: T3, Murine Jag2-DSL-EGF1-4 (mouse, UniProt Q9QYE5 27-388); assay: SPR (BIAcore-3000), IgG captured, Jag DSL-EGF1-4 as analyte
T3 construct: also called murine Jagged2; Mouse Jag2
T3 sequence: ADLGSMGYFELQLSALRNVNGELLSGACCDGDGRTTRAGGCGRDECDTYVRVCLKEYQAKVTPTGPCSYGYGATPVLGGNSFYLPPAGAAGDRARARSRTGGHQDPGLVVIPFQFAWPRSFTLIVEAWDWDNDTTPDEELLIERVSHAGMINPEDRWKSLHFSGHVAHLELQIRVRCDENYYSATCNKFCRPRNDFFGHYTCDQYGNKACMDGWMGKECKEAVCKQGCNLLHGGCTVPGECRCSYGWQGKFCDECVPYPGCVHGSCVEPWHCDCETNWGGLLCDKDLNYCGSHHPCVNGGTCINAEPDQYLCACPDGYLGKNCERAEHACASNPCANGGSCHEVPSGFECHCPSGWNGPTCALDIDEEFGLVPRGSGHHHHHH

Human Jag2-DSL-EGF1-4 [4] = molecular target: T4, Human Jag2-DSL-EGF1-4 (human, UniProt Q9Y219 24-388); assay: ELISA on human Jagged2 (Jag-2 bars), OD450 nm
T4 construct: also called human Jagged2; hJag2
T4 sequence: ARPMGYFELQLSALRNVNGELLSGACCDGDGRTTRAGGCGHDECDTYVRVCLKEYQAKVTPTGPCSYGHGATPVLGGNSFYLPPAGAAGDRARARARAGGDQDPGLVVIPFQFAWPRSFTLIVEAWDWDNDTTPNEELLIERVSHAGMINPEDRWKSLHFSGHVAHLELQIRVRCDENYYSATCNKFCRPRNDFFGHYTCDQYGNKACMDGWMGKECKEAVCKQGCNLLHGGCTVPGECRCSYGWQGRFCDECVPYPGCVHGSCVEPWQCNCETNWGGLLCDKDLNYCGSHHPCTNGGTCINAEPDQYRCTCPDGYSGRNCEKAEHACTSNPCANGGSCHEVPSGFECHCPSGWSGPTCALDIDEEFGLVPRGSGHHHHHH

Human Jag1-DSL-EGF1-4 [5] = molecular target: T2, Human Jag1-DSL-EGF1-4; assay: ELISA on human Jagged1 (Jag-1 bars), OD450 nm
Human Jag2-DSL-EGF1-4 [6] = molecular target: T4, Human Jag2-DSL-EGF1-4; assay: SPR (BIAcore-3000), IgG captured, Jag DSL-EGF1-4 as analyte, 25 C
Murine Jag2-DSL-EGF1-4 [7] = molecular target: T3, Murine Jag2-DSL-EGF1-4; assay: as above
Murine Jag1-DSL-EGF1-4 [8] = molecular target: T1, Murine Jag1-DSL-EGF1-4; assay: SPR (BIAcore-3000), IgG captured, Jag DSL-EGF1-4 as analyte
[9] = molecular target: T5, purified Jag1 extracellular domain protein fragment (Homo sapiens (Human), UniProt P78504 34-377); assay: BIAcore (SPR), purified Jag1 extracellular domain fragment
T5 construct: not shown: C-terminal TEV protease cleavage site and 6-His tag of the human Jag1-DSL-EGF1-4 antigen

Human Jag1-DSL-EGF1-4 [10] = molecular target: T2, Human Jag1-DSL-EGF1-4; assay: SPR (BIAcore T200), IgG1 captured, ligand as analyte, 25 C
Murine Jag1-DSL-EGF1-4 [11] = molecular target: T1, Murine Jag1-DSL-EGF1-4; assay: as above
[12] = molecular target: T6, human Delta-like 1 (DSL-EGF1-4 fragment) (human, UniProt O00548 18-368, limits assumed); assay: ELISA, Notch ligand coated at 1 ug/ml, serial 3-fold dilutions of IgG, anti-human Fab-peroxidase, A630 [left panel, A-2]
T6 construct: domain: DSL-EGF1-4; Recombinant purified Notch ligand; also called human DLL1; hDLL1
T6 sequence (looked up): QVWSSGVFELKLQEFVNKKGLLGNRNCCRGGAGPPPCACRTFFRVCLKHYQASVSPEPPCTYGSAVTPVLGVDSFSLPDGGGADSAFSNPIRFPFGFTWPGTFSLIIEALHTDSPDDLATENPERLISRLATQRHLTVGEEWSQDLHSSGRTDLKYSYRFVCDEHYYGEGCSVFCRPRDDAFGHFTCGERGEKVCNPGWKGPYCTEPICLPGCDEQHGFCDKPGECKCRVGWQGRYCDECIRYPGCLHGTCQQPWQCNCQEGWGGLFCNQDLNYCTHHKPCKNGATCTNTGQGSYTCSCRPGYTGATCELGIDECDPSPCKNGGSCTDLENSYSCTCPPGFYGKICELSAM

[13] = molecular target: T7, human Delta-like 4 (DSL-EGF1-4 fragment) (human, UniProt Q9NR61 27-365, limits assumed); assay: as above
T7 construct: domain: DSL-EGF1-4; Recombinant purified Notch ligand; also called human DLL4; hDLL4

[14] = molecular target: T8, murine Delta-like 4 (DSL-EGF1-4 fragment) (mouse, UniProt Q9JI71 27-366, limits assumed); assay: as above
T8 construct: domain: DSL-EGF1-4; Recombinant purified Notch ligand; also called murine DLL4; mouse DLL4

Human Jag2-DSL-EGF1-4 [15] = molecular target: T4, Human Jag2-DSL-EGF1-4; assay: as above
Murine Jag2-DSL-EGF1-4 [16] = molecular target: T3, Murine Jag2-DSL-EGF1-4; assay: as above
[17] = molecular target: T9, murine Delta-like 1 (DSL-EGF1-4 fragment) (mouse, UniProt Q61483 18-367, limits assumed); assay: as above
T9 construct: domain: DSL-EGF1-4; Recombinant purified Notch ligand; also called murine DLL1; mouse DLL1

[18] = molecular target: T7, human Delta-like 4 (DSL-EGF1-4 fragment); assay: SPR (BIAcore T200), IgG1 captured, ligand as analyte
[19] = molecular target: T8, murine Delta-like 4 (DSL-EGF1-4 …); assay: as above
Human Jag2-DSL-EGF1-4 [20] = molecular target: T4, Human Jag2-DSL-EGF1-4; assay: SPR (BIAcore T200), IgG1 captured, ligand as analyte, 25 C
Murine Jag2-DSL-EGF1-4 [21] = molecular target: T3, Murine Jag2-DSL-EGF1-4; assay: as above
[22] = molecular target: T6, human Delta-like 1 (DSL-EGF1-4 fragment); assay: SPR (BIAcore T200), IgG1 captured, ligand as analyte; value marked * (asterisk not explained)
[23] = molecular target: T9, murine Delta-like 1 (DSL-EGF1-4 …); assay: as above

B1: Antibody A (antibody, human IgG1, V domains shown)
VH: EVQLVESGGGLVQPGGSLRLSCAASGFTFSNYGIHWVRQAPGKGLEWVGWITPDGGYTDYADSVKGRFTISADTSKNTAYLQMNSLRAEDTAVYYCARAGSWFAYWGQGTLVTVSS
VL: DIQMTQSPSSLSASVGDRVTITCRASQDVSTAVAWYQQKPGKAPKLLIYSASFLYSGVPSRFSGSGSGTDFTLTISSLQPEDFATYYCQQSYTTPPTFGQGTKVEIK
notes: Only the variable domains are tied to the tested antibody; also called parent antibody A; anti-Jagged1 antibody A
- binding result (Murine Jag1-DSL-EGF1-4 [1]): binds
- Kd (Human Jag1-DSL-EGF1-4 [2]): 94 nM
- koff (Human Jag1-DSL-EGF1-4 [2]): 0.0021 s⁻¹
- kon (Human Jag1-DSL-EGF1-4 [2]): 23000 M⁻¹ s⁻¹
- binding result (Murine Jag2-DSL-EGF1-4 [3]): no binding (tested: 0.5 µM)
- binding result (Human Jag2-DSL-EGF1-4 [4]): no binding

B2: Antibody B (antibody, V domains shown)
VH: EVQLVESGGGLVQPGGSLRLSCAASGFTFTSYDIHWVRQAPGKGLEWVGGISPADGDTDYANSVKGRFTISADTSKNTAYLQMNSLRAEDTAVYYCARNDYDVRSVGSGMDYWGQGTLVTVSS
VL: DIQMTQSPSSLSASVGDRVTITCRASQDVSTAVAWYQQKPGKAPKLLIYSASFLYSGVPSRFSGSGSGTDFTLTISSLQPEDFATYYCQQSYTTPPTFGQGTKVEIK
notes: Anti-Jagged2 antibody, human IgG1; also called parental antibody of antibody B-3
- binding result (Human Jag1-DSL-EGF1-4 [5]): no binding
- Kd (Human Jag2-DSL-EGF1-4 [6]): 1 nM
- koff (Human Jag2-DSL-EGF1-4 [6]): 0.0026 s⁻¹
- kon (Human Jag2-DSL-EGF1-4 [6]): 2.5e+06 M⁻¹ s⁻¹
- Kd (Murine Jag2-DSL-EGF1-4 [7]): 1 nM
- koff (Murine Jag2-DSL-EGF1-4 [7]): 0.0026 s⁻¹
- kon (Murine Jag2-DSL-EGF1-4 [7]): 2.5e+06 M⁻¹ s⁻¹
- binding result (Murine Jag1-DSL-EGF1-4 [8]): no binding

B3: Antibody A-1 (antibody, human IgG1, kappa, V domains shown)
VH: EVQLVESGGGLVQPGGSLRLSCAASGFTFSNYGIHWVRQAPGKGLEWVGWITPDGGYTDYADSVKGRFTISADTSKNTAYLQMNSLRAEDTAVYYCARAGSLFAYWGQGTLVTVSS
VL: DIQMTQSPSSLSASVGDRVTITCRASQDVSTAVAWYQQKPGKAPKLLIYSASFLYSGVPSRFSGSGSGTDFTLTISSLQPEDFATYYCQQYYTTATTFGQGTKVEIKR
- Kd [9]: 0.799 nM

Further lines, results first:

- Kd [9]: 4.62 nM
- koff [9]: 0.000675 s⁻¹
- kon [9]: 146000 M⁻¹ s⁻¹
B4: Antibody A-1 S101A (antibody, V domains shown)
VH: EVQLVESGGGLVQPGGSLRLSCAASGFTFSNYGIHWVRQAPGKGLEWVGWITPDGGYTDYADSVKGRFTISADTSKNTAYLQMNSLRAEDTAVYYCARAGALFAYWGQGTLVTVSS
VL: DIQMTQSPSSLSASVGDRVTITCRASQDVSTAVAWYQQKPGKAPKLLIYSASFLYSGVPSRFSGSGSGTDFTLTISSLQPEDFATYYCQQYYTTATTFGQGTKVEIK
notes: Mutant of A-1 expressed in mammalian cells; also called A-1 G100, S101A

- Kd (Human Jag1-DSL-EGF1-4 [2]): 0.3 nM
- koff (Human Jag1-DSL-EGF1-4 [2]): 7.1e-05 s⁻¹
- kon (Human Jag1-DSL-EGF1-4 [2]): 230000 M⁻¹ s⁻¹
- Kd (Human Jag1-DSL-EGF1-4 [10]): 0.382 nM
- koff (Human Jag1-DSL-EGF1-4 [10]): 9.23e-05 s⁻¹
- kon (Human Jag1-DSL-EGF1-4 [10]): 242000 M⁻¹ s⁻¹
- Kd (Murine Jag1-DSL-EGF1-4 [11]): 0.15 nM
- koff (Murine Jag1-DSL-EGF1-4 [11]): 5.77e-05 s⁻¹
- kon (Murine Jag1-DSL-EGF1-4 [11]): 385000 M⁻¹ s⁻¹
- binding result [12]: no binding
- binding result [13]: no binding
- binding result [14]: no binding
- binding result (Human Jag2-DSL-EGF1-4 [15]): no binding
- binding result (Murine Jag2-DSL-EGF1-4 [16]): no binding
- binding result [17]: no binding
B5: Antibody A-2 (antibody, human IgG1, V domains shown)
VH: EVQLVESGGGLVQPGGSLRLSCAASGFTFSNYGIHWVRQAPGKGLEWVGWITGNGGYSDYADSVKGRFTISADTSKNTAYLQMNSLRAEDTAVYYCARAGSWFAYWGQGTLVTVSS
VL: DIQMTQSPSSLSASVGDRVTITCRASQDVSTAVAWYQQKPGKAPKLLIYSASFLYSGVPSRFSGSGSGTDFTLTISSLQPEDFATYYCQQSYTTPPTFGQGTKVEIK
notes: also called anti-Jagged1 antibody A-2

- binding result [18]: no binding
- binding result [19]: no binding
- Kd (Murine Jag2-DSL-EGF1-4 [7]): 0.3 nM
- koff (Murine Jag2-DSL-EGF1-4 [7]): 0.000175 s⁻¹
- kon (Murine Jag2-DSL-EGF1-4 [7]): 580000 M⁻¹ s⁻¹
- Kd (Human Jag2-DSL-EGF1-4 [20]): 0.041 nM
- koff (Human Jag2-DSL-EGF1-4 [20]): 0.000188 s⁻¹
- kon (Human Jag2-DSL-EGF1-4 [20]): 4.58e+06 M⁻¹ s⁻¹
- Kd (Murine Jag2-DSL-EGF1-4 [21]): 0.0571 nM
- koff (Murine Jag2-DSL-EGF1-4 [21]): 4.4e-05 s⁻¹
- kon (Murine Jag2-DSL-EGF1-4 [21]): 771000 M⁻¹ s⁻¹
- Kd [22]: 349 nM
- Kd [23]: 72.3 nM
B6: Antibody B-3 (antibody, human IgG1, V domains shown)
VH: EVQLVESGGGLVQPGGSLRLSCAASGFTFTSYDIHWVRQAPGKGLEWVGGISPADGDTDYANSVKGRFTISADTSKNTAYLQMNSLRAEDTAVYYCARNDYDVRFVGSGMDYWGQGTLVTVSS
VL: DIQMTQSPSSLSASVGDRVTITCRASQDVSTAVAWYQQKPGKAPKLLIYSASFLYSGVPSRFSGSGSGTDFTLTISSLQPEDFATYYCQQSFTAPPTFGQGTKVEIK
notes: also called anti-Jagged2 antibody B-3; anti-Jag2 B-3
